Laboratory results as given in patent US20170106012A1.

Target: T1, Bone morphogenetic protein 2 (BMP-2), recombinant human (Homo sapiens) (UniProt P12643)
T1 sequence: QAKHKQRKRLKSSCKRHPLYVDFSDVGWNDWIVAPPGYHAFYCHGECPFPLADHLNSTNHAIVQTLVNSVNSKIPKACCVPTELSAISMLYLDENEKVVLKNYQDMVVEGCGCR
Assay: cell-based or functional assay

- inhibition of BMP-2-induced ALP activity in C2C12 cells; noggin at 30 ng/ml, BMP-2 at 100 ng/ml, no GAG: 14 percent
- inhibition of BMP-2-induced ALP activity in C2C12 cells; noggin at 30 ng/ml, in the presence of HS+ve: 2 percent
- inhibition of BMP-2-induced ALP activity in C2C12 cells; noggin at 30 ng/ml, in the presence of HSpm: 4 percent
- inhibition of BMP-2-induced ALP activity in C2C12 cells; noggin at 100 ng/mL, in the presence of HS-ve: 75 percent
- inhibition of BMP-2-induced ALP activity in C2C12 cells; noggin at 100 ng/ml, BMP-2 at 100 ng/ml, no GAG: 95 percent
- inhibition of BMP-2-induced ALP activity in C2C12 cells; noggin at 100 ng/ml, in the presence of HS+ve: 43 percent
- inhibition of BMP-2-induced ALP activity in C2C12 cells; noggin at 100 ng/ml, in the presence of HSpm: 62 percent
B1: noggin (protein, UniProt Q13253 28-232, looked up, species assumed)
Noggin: QHYLHIRPAPSDNLPLVDLIEHPDPIFDPKEKDLNETLLRSLLGGHYDPGFMATSPPEDRPGGGGGAAGGAEDLAELDQLLRQRPSGAMPSEIKGLEFSEGLAQGKKQRLSKKLRRKLQMWLWSQTFCPVLYAWNDLGSRFWPRYVKVGSCFSKRSCSVPEGMVCKPSKSVHLTVLRWRCQRRGGQRCGWIPIQYPIISECKCSC
